Patent US20230063420A1

Legend:
[1] = target: cyno glucagon receptor (cyno); experiment: cell-based or functional assay
[2] = target: GLP-1 receptor (Example 19, species not stated); experiment: cell-based or functional assay

## semaglutide (peptide)
[1]
  cGCGR pEC50, cAMP accumulation: < 9 -log M
[2]
  pEC50, cAMP accumulation, 0% HSA: 11.6 -log M
  pEC50, cAMP accumulation, 0.1% HSA: 10.3 -log M
  pEC50, cAMP accumulation, 4% HSA: 9.24 -log M
